Columns and labels:
[1] = In vivo release after subcutaneous injection into rats; parameters: species or system Sprague-Dawley rats; settings: either liposome composition
Procedure: Liposomes composed of either DPPC or DMPG:DSPC:CHOL (1:4:5 molar) were prepared substantially in accordance with Method 4, above, to contain either ^125 I-tyraminyl inulin (at a final specific activity of 0.4×10^6 dpm/ml) or ^125 I-rhG-CSF (at a final specific activity of 1×10^6 dpm/ml). (See: ^125 I-labeled Inulin: A convenient marker for deposition of liposome contents in vivo. Sommerman, E. F., Pritchard, P. H. and Cullis, P. R. Biochem Biophys Res Coramerc Vol. 122(1), 319-324; 1984.) The final lipid composition was 30 mM. The injection site was marked. At various times after injection, the rats were sacrificed and the injection site was excised and counted for remaining ^125 I. Percent release was defined as %Release=100(1-DPMt /DPMo), where DPMt is the dpm remaining at the site at time t, and DPMo is the initial dpm injected (t=0).

[2] = Encapsulation of various protein therapeutics and oligonucleotides using Method 4; assay type: physicochemical; settings: up to; present invention
Procedure: Lipid films, prepared as described in Method 1, were hydrated in water and sonicated. The sonicated dispersions were then subjected to 3-5 cycles of freezing (dry ice/acetone) and thawing (37° C). The dispersions were freeze dried and ground as in Method 2 to form a lipid powder. The powder was subsequently hydrated in G-CSF, and the liposome-encapsulated material was microfluidized as described in Method 1. Unencapsulated G-CSF was separated from encapsulated G-CSF as described in Method 2.
The lipid samples were prepared, sonicated and subjected to freeze/thaw cycles as described in Method 3. Prior to dehydrating the sample, D-mannitol was added (1:1 weight ratio to lipid) as a bulking agent. The samples were freeze-dried and rehydrated, upon use, as described in Method 3. Hydration and microfluidization was carried out as described in Method 1. The samples were then dialyzed as described in Method 2.

G-CSF = assay: Reverse phase HPLC of encapsulated G-CSF; assay type: physicochemical, human; settings: C4 reverse phase HPLC
Description: Biologically active material encapsulated in accordance with Method 4, above, was also subjected to reverse phase high pressure liquid chromatography (HPLC) to determine whether liposome-encapsulation led to structural changes in the encapsulated material. For example, G-CSF alone or encapsulated in DMPG:DSPC:CHOL (1:4:5) liposomes was examined by C4 reverse phase HPLC under the following conditions:
Buffer A: 0.1% trifluoroacetic acid in water
Buffer B: 0.1% trifluoroacetic acid in 90% acetonitrile
Gradient: 0-90% B in 60 minutes
Flow rate: 0.8 milliliter/minute
Detection: 220 nanometers
Thirty micrograms of G-CSF was loaded per run. Liposomes were lysed in 40% methanol for 30 minutes at 37° C. prior to chromatography.

Row | Molecule | leakage of inulin or G-CSF [1] | Encapsulation of input [2] | material destruction or aggregation upon encapsulation (G-CSF) | structural integrity of G-CSF released from liposomes (G-CSF; liposomes lysed in 40% methanol) | Recovery (G-CSF; 30 μg G-CSF injected)
1 | inulin [reference compound] | No significant difference |  |  |  | 
2 | G-CSF: recombinant human granulocyte colony stimulating factor (protein, UniProt P09919 31-207, looked up) Granulocyte …: TPLGPASSLPQSFLLKCLEQVRKIQGDGAALQEKLVSECATYKLCHPEELVLLGHSLGIPWAPLSSCPSQALQLAGCLSQLHSGLFLYQGLLQALEGISPELGPTLDTLQLDVADFATTIWQQMEELGMAPALQPTQGAMPAFASAFQRRAGGVLVASHLQSFLEVSYRVLRHLAQP | No significant difference | 80-90% | no material destruction or aggregation | structurally identical to G-CSF which was never encapsulated | 100%
